Experiment [1] has as its target LRP4N-Myc (rat) (UniProt Q9QYP1). As to the kind of experiment: solid phase binding of MuSK-AP to coated LRP4, Scatchard plot.
Another experiment concerns the target T1, LRP4-Myc (UniProt Q9QYP1 21-1905).
T1 construct: whole, on cells; also called Myc-tagged full length LRP4; not shown: Myc tag of pcDNA3.1-MycHis; His tag of pcDNA3.1-MycHis
Description: solid phase binding: purified LRP4-Myc (name as in the legend) coated on plate, bound AP activity with pNPP. How it is done: FIG. 6A-G. Direct interaction between LRP4 and MuSK. […] Flag-MuSKect immobilized on beads were incubated with condition media of cells expressing the extracellular domains of LRP4 (LRP4N-Myc) or the empty vector (control) in the presence or absence of neuronal agrin. Precipitated LRP4 was analyzed by immunoblot with anti-Myc antibody. […] FIG. 6B is a quantitative analysis of LRP4N-Myc and Flag-MuSK. Data shown were mean±SEM, n=3; *, p <0.05 in comparison with the no-agrin group. […] Purified LRP4-Myc was coated on Maxi-Sorp Immuno Plates, which were incubated with MuSK-AP. Bound AP was measured with pNPP as substrate. Data shown were mean±SEM. n=4. FIG. 6D is a Scatchard plot of data in FIG. 6C. Y axis represents the ratio of bound to free MuSK-AP whereas X axis represents the concentration of bound MuSK-AP. […] Experiments were done as in FIG. 6A except condition medium of cells expressing the extracellular domain of LRP6 was used. […] HEK293 cells were transfected with LRP4 and/or Flag-MuSK. Lysates were incubated with anti-Flag antibody, and resulting immunocomplex was analyzed for LRP4 and Flag. Lysates were also probed to indicate equal amounts of indicated proteins. […]
Solid phase binding assay. […] Coated wells were incubated with purified AP fusion proteins and the AP activity was measured using pNPP as substrate.

Experiment [2] concerns the target LRP4N-Myc (rat) (UniProt Q9QYP1). As to the kind of experiment: solid phase binding of nAgrin-AP to coated LRP4, Scatchard plot.
Experiment [3] shares this target. As to the kind of experiment: solid phase binding: purified LRP4 (legend: LRP4-Myc; paragraph 111: LRP4N-Myc) coated on plate, bound AP activity with pNPP.
Experiment [4] deals with T2, full length LRP4 (pcDNA-LRP4) (UniProt Q9QYP1 21-1905, limits assumed).
T2 construct: whole, on cells; Expressed in transfected C2C12 myoblasts or HEK293 cells; also called exogenous LRP4
T2 sequence (Q9QYP1 21-1905 limits assumed): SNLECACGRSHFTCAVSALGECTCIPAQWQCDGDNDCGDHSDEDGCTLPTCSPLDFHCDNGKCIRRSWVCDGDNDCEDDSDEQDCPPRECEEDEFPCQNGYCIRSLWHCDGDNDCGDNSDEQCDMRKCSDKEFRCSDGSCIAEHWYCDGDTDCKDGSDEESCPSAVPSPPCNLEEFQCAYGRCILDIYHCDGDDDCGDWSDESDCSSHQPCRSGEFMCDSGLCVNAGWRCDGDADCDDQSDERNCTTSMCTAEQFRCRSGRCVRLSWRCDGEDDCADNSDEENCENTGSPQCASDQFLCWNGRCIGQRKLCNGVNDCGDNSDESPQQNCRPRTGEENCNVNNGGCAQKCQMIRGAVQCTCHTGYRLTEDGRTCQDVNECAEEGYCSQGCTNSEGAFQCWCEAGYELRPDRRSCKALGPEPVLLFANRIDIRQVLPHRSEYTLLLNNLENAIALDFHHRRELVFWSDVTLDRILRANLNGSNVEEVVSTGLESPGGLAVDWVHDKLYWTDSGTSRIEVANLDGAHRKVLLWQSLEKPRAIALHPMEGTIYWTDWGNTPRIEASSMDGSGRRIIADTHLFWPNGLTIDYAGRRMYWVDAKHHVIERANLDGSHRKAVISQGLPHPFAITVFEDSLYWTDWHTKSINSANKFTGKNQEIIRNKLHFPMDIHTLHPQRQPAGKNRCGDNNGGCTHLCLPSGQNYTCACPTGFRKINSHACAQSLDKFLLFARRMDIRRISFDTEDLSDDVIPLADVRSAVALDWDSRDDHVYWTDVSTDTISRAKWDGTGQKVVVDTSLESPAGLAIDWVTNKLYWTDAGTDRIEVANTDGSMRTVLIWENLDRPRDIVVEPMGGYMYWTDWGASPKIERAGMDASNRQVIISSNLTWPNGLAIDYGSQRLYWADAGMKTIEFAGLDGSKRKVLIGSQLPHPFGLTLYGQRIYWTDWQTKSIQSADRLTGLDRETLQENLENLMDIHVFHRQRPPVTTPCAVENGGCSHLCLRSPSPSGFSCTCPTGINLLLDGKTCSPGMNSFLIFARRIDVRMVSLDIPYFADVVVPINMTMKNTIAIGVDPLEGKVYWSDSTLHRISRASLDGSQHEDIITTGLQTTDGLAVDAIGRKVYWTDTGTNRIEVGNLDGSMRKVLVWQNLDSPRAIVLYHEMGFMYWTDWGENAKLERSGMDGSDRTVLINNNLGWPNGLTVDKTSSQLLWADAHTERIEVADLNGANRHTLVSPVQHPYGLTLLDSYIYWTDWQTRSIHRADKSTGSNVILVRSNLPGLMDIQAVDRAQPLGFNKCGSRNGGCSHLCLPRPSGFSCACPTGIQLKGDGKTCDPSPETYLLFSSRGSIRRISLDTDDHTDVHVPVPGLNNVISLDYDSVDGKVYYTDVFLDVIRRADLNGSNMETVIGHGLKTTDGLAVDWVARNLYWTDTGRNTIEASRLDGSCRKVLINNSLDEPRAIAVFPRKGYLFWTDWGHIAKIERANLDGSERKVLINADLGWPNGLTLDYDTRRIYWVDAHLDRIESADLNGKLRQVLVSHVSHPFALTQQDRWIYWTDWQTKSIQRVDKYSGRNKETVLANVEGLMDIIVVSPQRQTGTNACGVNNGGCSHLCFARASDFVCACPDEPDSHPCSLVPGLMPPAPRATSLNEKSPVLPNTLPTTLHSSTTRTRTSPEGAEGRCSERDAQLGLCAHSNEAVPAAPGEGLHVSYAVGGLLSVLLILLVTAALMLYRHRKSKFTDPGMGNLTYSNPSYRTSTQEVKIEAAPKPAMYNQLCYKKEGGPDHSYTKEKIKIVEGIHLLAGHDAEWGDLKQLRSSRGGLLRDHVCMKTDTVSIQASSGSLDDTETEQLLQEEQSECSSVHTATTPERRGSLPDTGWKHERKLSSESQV
Description: intact cell binding on transfected C2C12 myoblasts, BCIP/NBT staining quantified. As for the experimental part:
FIG. 4A-G. Expression of LRP4 enables binding activity for neuronal agrin and MuSK signaling. […] C2C12 myoblasts were transfected by empty vector (control), LRP4 and/or Flag-MuSK. 36 hr after transfection, myoblasts were incubated with AP alone, mAgrin-AP or nAgrin-AP for 90 min at room temperature. Endogenous AP was inactivated by heating and bound AP was visualized in cells by staining with BCIP/NBT. FIG. 4B is a quantification of data in FIG. 4A. Data shown were mean±SEM. n=6; *, P<0.05 in comparison with mAgrin-AP of the same group or nAgrin-AP in the control group. FIG. 4C and FIG. 4D show nAgrin-AP bound to HEK293 cells expressing LRP4, but not those expressing LRP5. HEK293 cells were transfected without (control) or with LRP4-Myc (FIG. 4C) or LRP5-Myc (FIG. 4D). 36 hr after transfection, transfected cells were incubated with nAgrin-AP or mAgrin-AP. In some experiments, control cells were incubated with nAgrin-AP. After heat inactivation of endogenous AP, lysates were assayed for transfected AP using pNPP as substrate. […] In FIG. 4E, lysates were incubated with anti-Flag antibody, and resulting immunocomplex was analyzed with anti-phosphotyrosine antibody 4G10. […] FIG. 4G is a quantitative analysis of data in FIG. 4E and FIG. 4F. MuSK and Abl phosphorylation was quantified by using the ImageJ software. […]

LRP4N-Myc (rat), sequence (Q9QYP1 21-1723): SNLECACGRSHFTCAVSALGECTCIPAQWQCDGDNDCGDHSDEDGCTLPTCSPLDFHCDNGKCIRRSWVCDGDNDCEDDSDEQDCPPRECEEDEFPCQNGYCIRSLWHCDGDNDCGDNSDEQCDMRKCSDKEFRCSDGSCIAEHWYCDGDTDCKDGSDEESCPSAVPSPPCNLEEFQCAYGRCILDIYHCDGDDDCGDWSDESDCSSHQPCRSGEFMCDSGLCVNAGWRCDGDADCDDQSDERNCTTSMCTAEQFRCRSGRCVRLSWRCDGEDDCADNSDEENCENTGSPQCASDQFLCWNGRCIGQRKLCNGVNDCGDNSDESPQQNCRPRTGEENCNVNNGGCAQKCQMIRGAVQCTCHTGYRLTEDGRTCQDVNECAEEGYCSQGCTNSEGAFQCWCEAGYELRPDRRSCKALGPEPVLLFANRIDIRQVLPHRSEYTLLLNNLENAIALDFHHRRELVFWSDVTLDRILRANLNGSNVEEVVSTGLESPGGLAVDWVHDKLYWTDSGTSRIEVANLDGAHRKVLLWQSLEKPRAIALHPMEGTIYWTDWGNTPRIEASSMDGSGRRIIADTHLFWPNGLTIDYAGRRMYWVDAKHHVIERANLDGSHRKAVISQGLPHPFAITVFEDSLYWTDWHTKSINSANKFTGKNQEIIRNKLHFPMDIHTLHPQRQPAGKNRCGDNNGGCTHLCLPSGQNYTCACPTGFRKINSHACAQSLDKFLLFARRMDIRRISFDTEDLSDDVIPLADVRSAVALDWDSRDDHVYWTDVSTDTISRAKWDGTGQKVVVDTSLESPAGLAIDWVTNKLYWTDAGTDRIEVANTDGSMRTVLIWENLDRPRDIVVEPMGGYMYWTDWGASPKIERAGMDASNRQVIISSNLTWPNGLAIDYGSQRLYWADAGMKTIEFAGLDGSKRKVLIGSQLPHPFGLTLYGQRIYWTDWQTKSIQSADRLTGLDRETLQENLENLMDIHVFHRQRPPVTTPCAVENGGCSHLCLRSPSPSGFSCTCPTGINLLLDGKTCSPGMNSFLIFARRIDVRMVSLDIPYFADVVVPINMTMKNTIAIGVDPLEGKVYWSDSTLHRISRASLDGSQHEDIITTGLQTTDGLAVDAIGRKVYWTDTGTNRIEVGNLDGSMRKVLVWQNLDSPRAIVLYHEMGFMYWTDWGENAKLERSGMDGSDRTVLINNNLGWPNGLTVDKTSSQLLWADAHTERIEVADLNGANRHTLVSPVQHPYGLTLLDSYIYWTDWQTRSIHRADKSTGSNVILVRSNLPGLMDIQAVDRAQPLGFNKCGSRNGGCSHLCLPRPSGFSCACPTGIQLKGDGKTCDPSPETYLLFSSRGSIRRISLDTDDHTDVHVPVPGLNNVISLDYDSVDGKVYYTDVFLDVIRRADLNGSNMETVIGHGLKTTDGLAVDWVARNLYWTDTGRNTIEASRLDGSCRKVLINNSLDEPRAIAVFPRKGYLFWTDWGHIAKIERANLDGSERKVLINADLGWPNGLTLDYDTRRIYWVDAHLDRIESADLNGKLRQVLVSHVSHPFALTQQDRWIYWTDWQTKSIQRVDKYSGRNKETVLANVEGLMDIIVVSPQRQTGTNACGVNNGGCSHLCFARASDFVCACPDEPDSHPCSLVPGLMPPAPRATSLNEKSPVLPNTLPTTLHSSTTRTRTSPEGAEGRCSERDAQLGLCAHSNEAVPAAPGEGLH
T1 sequence (Q9QYP1 21-1905): as the sequence (Q9QYP1 21-1905 limits assumed) above

Turning to “MuSK-AP (from UniProt P05187 23-511) (receptor)”, the dissociation constant (Kd) (as a rule, the free concentration of one partner at which half of the binding sites on the other are occupied at equilibrium, for simple one-to-one binding) in the experiment with LRP4N-Myc (rat) [1] came out at 0.45 nM. In addition, the EC50 (read off the curve) (as a rule, the concentration giving half of the maximal effect) with LRP4-Myc was 0.3 nM.
“nAgrin-AP (from UniProt P25304 1145-1940) (ligand)” registered a dissociation constant Kd in the experiment with LRP4N-Myc (rat) [2] of 0.5 nM. In the experiment with LRP4N-Myc (rat) [3], this molecule displayed an EC50 (read off the curve) of 0.4 nM.

B1: AP alone (enzyme, human, UniProt P05187 23-511, looked up)
chain: IIPVEEENPDFWNREAAEALGAAKKLQPAQTAAKNLIIFLGDGMGVSTVTAARILKGQKKDKLGPEIPLAMDRFPYVALSKTYNVDKHVPDSGATATAYLCGVKGNFQTIGLSAAARFNQCNTTRGNEVISVMNRAKKAGKSVGVVTTTRVQHASPAGTYAHTVNRNWYSDADVPASARQEGCQDIATQLISNMDIDVILGGGRKYMFRMGTPDPEYPDDYSQGGTRLDGKNLVQEWLAKRQGARYVWNRTELMQASLDPSVTHLMGLFEPGDMKYEIHRDSTLDPSLMEMTEAALRLLSRNPRGFFLFVEGGRIDHGHHESRAYRALTETIMFDDAIERAGQLTSEEDTLSLVTADHSHVFSFGGYPLRGSSIFGLAPGKARDRKAYTVLLYGNGPGYVLKDGARPDVTESESGSPEYRQQSAVPLDEETHAGEDVAVFARGPQAHLVHGVQEQTFIAHVMAFAACLEPYTACDLAPPAGTTDAAHPG
notes: Control protein; also called control (empty pAPtag-5)
Turning to B1, the binding result in experiment [4] is “no binding (tested: 5 nM (not printed on the sheet))”; with LRP4-Myc, “no binding (tested: 1000 nM)”.

The values above are taken from patent US20160187355A1 (AUGUSTA UNIVERSITY RESEARCH INSTITUTE, published 2016).
